Measurements: paper PMC2677881

Target: T1, NtbZIP (Nicotiana tabacum, UniProt Q4PKH1 1-400)
T1 sequence: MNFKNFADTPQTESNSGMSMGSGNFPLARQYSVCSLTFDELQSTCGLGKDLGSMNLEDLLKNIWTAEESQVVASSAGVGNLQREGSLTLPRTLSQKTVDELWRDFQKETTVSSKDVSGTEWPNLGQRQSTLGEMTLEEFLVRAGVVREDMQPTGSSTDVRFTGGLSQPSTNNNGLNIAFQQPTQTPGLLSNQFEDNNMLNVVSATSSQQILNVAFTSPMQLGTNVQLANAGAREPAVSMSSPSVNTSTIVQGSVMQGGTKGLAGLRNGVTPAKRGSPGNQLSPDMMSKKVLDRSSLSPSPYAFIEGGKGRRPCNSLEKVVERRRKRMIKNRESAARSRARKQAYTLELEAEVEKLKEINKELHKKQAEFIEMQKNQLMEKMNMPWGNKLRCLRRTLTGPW
Assay: EMSA

B1: 4x G-box of PNZIP promoter (dsDNA)
DNA 1: GCCACGTGTCGCCACGTGTCGCCACGTGTCGCCACGTGTC
DNA 2: GACACGTGGCGACACGTGGCGACACGTGGCGACACGTGGC
binding result: binds
